{
  "source": "paper PMC11346345",
  "about": "(Cell reports, 2024)",
  "molecular_target": "recombinant GP38 of CCHFV Afg09-2990 (Crimean-Congo hemorrhagic fever virus, …, UniProt E5FEZ4, strain)",
  "assay": "SPR",
  "data": [
    {"binder": "ADI-58048 IgG (antibody, V domains shown) VH: QLQLQESGPGLVKPSETLSLTCTVSGGSITTSHYYWGWIRQPPGKGLEWVGSMYYSGGIYYNPSLKGRVTISVDTSKNQFSLKLSSVTAADTAVYYCALADAPDDAFDIWGQGTMVTVSS VL: DIQMTQSPSSLSAFVGDRVTITCRASQSISSYLNWYQQKPGKAPKLLIYAASTLQSGVPSRFSGSGSGTDFTLTISSLQSEDFATYYCQESYSIPFTFGPGTKVDIK", "values": [
      {"measurement": "fold reduction in binding", "result": "~27", "unit": "fold"}
    ]}
  ]
}
